In test [1] the target is T1, human CD19 on Ramos cells (B-cell lymphoma) (human, UniProt P15391 20-556).
T1 construct: whole, on cells; also called hCD19
T1 sequence (looked up): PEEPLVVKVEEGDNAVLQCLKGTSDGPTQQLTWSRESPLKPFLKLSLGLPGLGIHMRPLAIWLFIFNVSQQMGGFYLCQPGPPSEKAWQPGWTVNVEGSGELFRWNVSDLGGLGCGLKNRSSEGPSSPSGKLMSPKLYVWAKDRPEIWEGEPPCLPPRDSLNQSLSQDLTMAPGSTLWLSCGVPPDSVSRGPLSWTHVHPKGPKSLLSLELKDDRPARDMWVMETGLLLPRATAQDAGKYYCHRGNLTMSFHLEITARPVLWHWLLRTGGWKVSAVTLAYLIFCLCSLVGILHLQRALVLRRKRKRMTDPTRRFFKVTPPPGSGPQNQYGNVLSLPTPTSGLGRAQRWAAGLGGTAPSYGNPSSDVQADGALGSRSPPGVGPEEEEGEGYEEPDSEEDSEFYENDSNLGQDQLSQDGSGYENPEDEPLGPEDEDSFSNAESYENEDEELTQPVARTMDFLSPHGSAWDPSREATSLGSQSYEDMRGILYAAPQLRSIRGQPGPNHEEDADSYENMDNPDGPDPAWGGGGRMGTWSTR
Nature of the test: flow cytometry of Ramos cells incubated with M12 supernatant, detected with PE anti-mouse I-A/I-E. As for the experimental part: Ramos cells were incubated with culture media (negative control) or supernatant from M12 cells expressing BMiMS, then stained with fluorophore conjugated antibodies against the indicated immune molecules and analyzed by flow cytometry.
M12 cells were cultured to confluency (1-2×10⁶ cells/mL) in complete RPMI (5% FCS) and the supernatant was harvested for analysis as described above. Ramos cells were harvested, washed, and 1×10⁶ were incubated with media (negative control) or 0.250 mL of concentrated (50 mL down to 0.250 mL in Amicon Ultra 15 10 kDa (Millipore)) M12 cell culture supernatant at 4° C. for 1 hour. After washing, cells were stained with PE conjugated anti-mouse I-A/I-E (clone M5/14. 15.2, eBiosciences), PE conjugated anti-mCD80 (clone 16-10A1, BioLegend), anti-mCD86 (clone GL-1, BioLegend) or anti-mlCAM-1 (clone YN1/1.7.4, eBioscience) and analyzed by flow cytometry.
In general terms: Flow cytometry measures light scatter and fluorescence of single cells or particles in a stream.

Test [2] addresses T2, recombinant huCD19 (BioLegend) (human, UniProt P15391 20-291, limits assumed).
T2 construct: Bought reagent; also called rhuCD19
T2 sequence (looked up): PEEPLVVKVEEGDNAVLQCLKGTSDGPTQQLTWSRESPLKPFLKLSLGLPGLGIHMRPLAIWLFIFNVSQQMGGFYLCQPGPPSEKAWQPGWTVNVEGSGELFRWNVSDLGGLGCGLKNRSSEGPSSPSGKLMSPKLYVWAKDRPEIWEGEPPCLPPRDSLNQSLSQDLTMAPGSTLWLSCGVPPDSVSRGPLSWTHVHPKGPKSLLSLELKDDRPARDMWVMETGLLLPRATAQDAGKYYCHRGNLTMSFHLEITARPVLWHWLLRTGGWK
Description: plate coated with 4 ug/ml recombinant huCD19, BMiMS supernatant, washed; retention read through IL-2 of 5c.c7 T cells. The protocol:
An experiment was designed to determine whether BMiMS can bind huCD19 and stimulate CD4+ T cells. See FIG. 9A. pMHCII-based BMiMS were made with the moth cytochrome c […] peptide (MCC) tethered with a flexible linker to I-E^k (MCC:I-E^k) which is recognized by the 5c.c7 TCR. For a pilot experiment, the wells of a 96-well plate were coated with 4 μg/ml recombinant huCD19 (BioLegend). The wells were washed and then incubated with concentrated supernatant from cells expressing pMHCII-BMiMS, CD80-BMiMS, or both. Naive 5c.c7+CD4+ T cells from 5c.c7 TCR transgenic mice (RagKO) were then incubated for 18 hr in the wells prior to harvesting of the supernatant for measurement of IL-2 by ELISA. No IL-2 was produced by cells cultured in wells with huCD19 only or the huCD19+CD80 BMiMS. IL-2 was produced by T cells cultured in wells with huCD19+pMHCII-BMiMS, and higher levels of IL-2 were produced by T cells cultured in wells coated with huCD19+pMHCII-BMiMS+CD80-BMiMS.

B1: mMHCII-Anti-hCD19 BMiMS (MCC:I-E^k fused to anti-hCD19 AltIg Fv of mAb B43, opened C-C' loop) (other)
MHC II alpha: CIKEEHTIIQAEFYLLPDKRGEFMFDFDGDEIFHVDIEKSETIWRLEEFAKFASFEAQGALANIAVDKANLDVMKERSNNTPDANVAPEVTVLSRSPVNLGEPNILICFIDKFSPPVVNVTWLRNGRPVTEGVSETVFLPRDDHLFRKFHYLTFLPSTDDFYDCEVDHWGLEEPLRKHWEFEEKTLLPETKESRGGLEVLFQGPEFGGSTTAPSAQLEKELQALEKENAQLEWELQALEKELAQAAAGQPPKLLIYDASNLVSGIPPRFSGSGSGTDFTLNIHPVEKVDAATYHCQQSTEDPWTFGGGTKLEIKSPGSGGGGSGGGGSGGGGSSGELVLTQSPASLAVSLGQRATISCKASQSVDYDGDSYLNWYQQIGGGGSHHHHHH
MHC II beta: CADPSGSANERADLIAYLKQATKEFRSGGGGSLVPRGSGGGGSVDRPWFLEYCKSECHFYNGTQRVRLLVRYFYNLEENLRFDSDVGEFRAVTELGRPDAENWNSQPEFLEQKRAEVDTVCRHNYEIFDNFLVPRRVEPTVTVYPTKTQPLEHHNLLVCSVSDFYPGNIEVRWFRNGKEEKTGIVSTGLVRNGDWTFQTLVMLETVPQSGEVYTCQVEHPSLTDPVTVEWKAQSTSAQNKSRGGLEVLFQGPEFGGSTTAPSAQLKKKLQALKKKNAQLKWKLQALKKKLAQAAAGQGLEWIGQIWPGDGDTNYNGKFKGKATLTADESSSTAYMQLSSLRSEDSAVYSCARRETTTVGRYYYAMDYWGQGTTVTSPGSGGGGSGGGGSGGGGSSGQVQLLESGAELVRPGSSVKISCKASGYAFSSYWMNWVKQRGGGGSHHHHHH
notes: Heterodimer secreted by M12 cells, used as concentrated culture supernatant; also called pMHCII-BMiMS; pMHCII-based BMiMS
As to B1, the binding result in test [1] and in test [2] was “binds” in each case.
